Legend:
[1] = target: T1, 重组人IL-1β (human, UniProt P01584 117-269); assay: solution equilibrium titration (SET), single target binding assay, mean KD
T1 construct: also called huIL-1β; IL-1b

[2] = target: T2, 重组人IL-18 (human, UniProt Q14116 37-193); assay: SET, single target binding assay
T2 construct: also called huIL-18; BTP 25829

Binder | Kd [1] [pM] | binding result [2]
mAb2 (antibody, human IgG1, kappa, V domains shown, Human anti-IL-1β antibody, bivalent; also called IL-1β抗体; 卡那吉努单抗 (canakinumab)) VH: QVQLVESGGGVVQPGRSLRLSCAASGFTFSVYGMNWVRQAPGKGLEWVAIIWYDGDNQYYADSVKGRFTISRDNSKNTLYLQMNGLRAEDTAVYYCARDLRTGPFDYWGQGTLVTVSS VL: EIVLTQSPDFQSVTPKEKVTITCRASQSIGSSLHWYQQKPDQSPKLLIKYASQSFSGVPSRFSGSGSGTDFTLTINSLEAEDAAAYYCHQSSSLPFTFGPGTKVDIKR | 0.6 | –
mAb1 (antibody, human IgG1, lambda, L234A L235A, V domains shown, Human anti-IL-18 antibody, bivalent; also called IL-18抗体) VH: EVQLVQSGAEVKKPGSSVKVSCKASGGTFKSYAISWVRQAPGQGLEWMGNIIPMTGQTYYAQKFQGRVTITADESTSTAYMELSSLRSEDTAVYYCARAAYHPLVFDNWGQGTLVTVSS VL: DIVLTQPPSVSGAPGQRVTISCSGSSSNIGNHYVNWYQQLPGTAPKLLIYRNNHRPSGVPDRFSGSKSGTSASLAITGLQSEDEADYYCQSWDYSGFSTVFGGGTKLTVLG | – | binds
